Reference: publication PMC6442461 (2020)

Biological target: T1, cytochrome f soluble domain lacking the transmembrane helix (Nostoc sp. PCC 7119, UniProt Q93SW9)
T1 chain: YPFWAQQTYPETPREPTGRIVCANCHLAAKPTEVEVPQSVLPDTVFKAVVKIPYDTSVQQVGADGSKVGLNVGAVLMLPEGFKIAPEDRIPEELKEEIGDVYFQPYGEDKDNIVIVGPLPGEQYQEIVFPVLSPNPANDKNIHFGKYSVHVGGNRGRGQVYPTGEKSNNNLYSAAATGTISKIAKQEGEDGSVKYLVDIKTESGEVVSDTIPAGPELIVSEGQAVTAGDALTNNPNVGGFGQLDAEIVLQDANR
Experiment: fluorescence titration

Kd: 70 µM
B1: plastocyanin (protein)
chain: ETYTVKLGSDKGLLVFEPAKLTIKPGDTVEFLNNKVPPHNVVFDAALNPAKSADLAKSLSHKQLLMSPGQSTSTTFPADAPAGEYTFYCEPHRGAGMVGKITVAG
